Assay results reported in paper PMC7405475.

Biological target: His6-maltose binding protein-SARS-CoV-2 N3 (spacer B/N3 region, residues 365-419) (SARS-CoV-2) (UniProt P0DTC9)
Assay: SEC-MALS

**Q.** For “His6-maltose binding protein-SARS-CoV-2 N3 (spacer B/N3 region, residues 365-419) (from UniProt P0DTC9 365-419) (domain or fragment)”, which stoichiometry N is on record?
**A.** 2
